Source: a protein production outcome set (Wang et al. 2014)

Assay: label from the status in PepcDB records

| Sequence | protein production |
| --- | --- |
| MRLSRGVFLLLLLLALASPLMIVGCGGPSFLPAASLRDPSVDMAWPPAPNPARIRFLREISGPEQVKAEPGAIARFLEFVTGEQFKHVPFVTPYGVVSDGGTLLFVSDSSSGVVHRIDLARQKVSYIVRAGDEFLSSPVGLALSPSGDLYVSDSVNAKVYVFSRDGEFLRVLADGQVDFKRPAGLAVNSKGVLFVVDVLAHKLKVFNVSGRFLGDFPPDDIGGKLNLPSHVAVDKDDKVYVTDALNFTVKVYDSARRYLRSIGEIGDAPGSFARPRGVAVDSDLNVYVIDAAFDNFQIFNQEGQLLLFVGKPGKKSGEFYMPSGIHIDRNDRIFISDSYNRRVQVFEYLKEENR | failed |
| MAPLLSLCMIVKNEAHQLRRCLQSVQPWVDEIIIVDTGSTDGTIAIACEFTPHVHAVAWQGDFAAARNAALAQATGEWVFYIDADEELVVTDAHWQDQLTAPGAHAINQWSLLRREQSSDRNWSEFWNVRFGRRFPDLHFAGALHEQLCYREREAVVGELQGVYLIHHNQQSQEQFLAKIRDRNIPILETMVQQGDRRLQNLVCLGDHYAACGDSDRSQAWYEQALEEIASAVEQGILPRETTWLRHLLFWVSYRAFEAKDYETAQYYLSYGLRFFDRYPPLLYVAGLFVFELGLPRGALPYFHRCLDLFEAGSYDRTEPFDRQWMTTQPAYSLGYTYMTLQERDRAIAYFQKTLKFNPDYPPAQMYLEQLLRASANQGLEHHHHHH | failed |
| MISFLLSLVLLIVGYFTYGKFVDKTFGTNDSIETPAESMADGVDYVPMSWPRIFLIQFLNIAGLGPIFGAIAGALWGPVAFLWIVFGCIFAGAVHDYFTGVLSIRNKGVSVAELVGKYLGEIPRKIMVIFSVVLLILVGVVFLTGPADLLKTLTGIDRDIFIVIIVVYYIAATVLPVDKVIGKIYPIFGLCLLIMAVGIGAGIVIEGYNIPEIQLANFHPEGTPIFPFLFITIACGAISGFHATQSPIMARCVKKESEARKVFYGAMIAEGVIALVWAAAAMSFFGDTNGLQEILKAGGPATVVNTISNTVMGKVGAVLAILGVVACPISSGDTAFRSARLTIADAFKLKQDKVIDRFKIAIPLFVVGIALTFIDFGIIWRYFSWSNQTLAMIMLWAASAYMLKAHNNYWITLVPAVFMSAVTCSYILQAPEGFRLNATFSNIAGVVFALVLFGIFIKYCKKENNENCEIVEIEEVKEVIKNK | failed |
| MSLIVSTIASHSSLQILLGAKKEGFKTRLYVSPKRRPFYSSLPIVDDLVVAEEMTSILNDDGIVVPHGSFVAYLGIEAIEKAKARFFGNRRFLKWETTFELQDKALEGAGIPRVEVVEPEDAKPDELYFVRIEGPRGGSGHFIVEGSELEERLSTLEEPYRVERFIPGVYLYVHFFYSPILERLELLGVDERVLIADGNARWPVKPLPYTIVGNRAIALRESLLPQLYDYGLAFVRTMRELEPPGVIGPFALHFAYDGSFKAIGIASRIDGGSNADHWYSELYWGERLSMGRRIARELRLAEEEDRLEEVVTEGHHHHHH | not failed |
| MSFIEKMIGSLNDKREWKAMEARAKALPKEYHHAYKAIQKYMWTSGGPTDWQDTKRIFGGILDLFEEGAAEGKKVTDLTGEDVAAFCDELMKDTKTWMDKYRTKLNDSIGRD | not failed |
| MASSVDEEALHQLYLWVDNIPLSRPKRNLSRDFSDGVLVAEVIKFYFPKMVEMHNYVPANSLQQKLSNWGHLNRKVLKRLNFSVPDDVMRKIAQCAPGVVELVLIPLRQRLEERQRRRKQ | not failed |
| MLNEEQNSLEEKGGENKNEKETPLKGIHSKIPSLKQALEQTISKIKSSKEFFKQILHNKKKLYIALGALLLLIVLIVALSLLLGHKKENKQTSLQTNTIATNNETPNNTNNANNTEAERQIENLDLSDLIGKDSLKRNDENQVDAIMKKASLLYEQGQKDEALHLFDKAASFSQGIASHNLGVIKFKEKDFNGALDLFDSSIASKENASVSAIDALVSAYHLQDEDLYYHYLKIARDTLYKDYKKSFYSYAYALKSYYAGEYFEALSPLMHPNSNAFLKPNTRLASKLFLMFKDETNAYEQLQKSANAQDELALGLLQARLGHYKQALEHLQHYLHNYPKDLNALMALELVSLKKGDTLKASEALKLASHTKEDTLLANSFYPIKPTINPVFLDKERAKERFWNTQYFEGKRDFIYRLLFYYAPFKVLDSKETLGVIEEGLFLLDSDAQKDLEGASLAFKRGRLMAIADKNALQGLKALENKRLKKALSFFDLSLKNSPNNALLHYNTGLIYAQLENYHKAYFHFLRAFHLNSADYLSAVFAILASHFTHEDTTEFLREITENFYSQDFSSPTQKALLSSLIAYLNYRTNWDMDWLKNAPKKLPFYYALEAAFAKESKDKKLMVQSFGNLKKMLPKDLISNIFYEIVSYYDASIRHTLSIYTLLDSHKISWDQTMQGPILGRHFYTYMGFMVNDLDHQERLLEQKIASLEEGEAPNDWLENLALVSLFQGQYEKASALYQNLISGLKDNETHLKILAGLTYIAQNNYDSAALWLELGKLDDPNNENIRYALGLLYQRKGDLKSALNHFLAIKTSDFSSPYFDFEIDANLLKERLDQEKEGEFLE | failed |
| MPQNYPWLNTEQPLSIKQLNGRVVILDFWTYCCINCLHVLPDLKYLEQKYKDSLTVIGVHSAKFDNEQETENIRQAILRYDIEHPVLVDKDFRVWQEYAVRAWPTLMVIDPKGYVIGYVSGEGNRDKLDQLITQVIQEHQGAINFQQLSLTLEKQRQPLITPLAFPGKVLATPSGLFVADSGHHRIVVSDFNGEILHLIGNGKSGLTDGNFQEAQFSAPQGMAFDMENQILYLADTENHALRRVDINQQTVETIAGTGEQSRNIQPHGGVGLETALNSPWDLVNIENSLYIAMAGVHQIWQMDLASGVIKTYAGTGVEACLDASLTESAFAQPSGITNNEQELYIADSEISSIRGVGLVEPQEVRTVCGSGGLFGFGDVDGQGEDVRLQHCLGVEYFQNYLWVADTYNHKIKSVSPHTGNCQTVLGDGLAGLQNGQGKNTRFFEPSGLSAIDSYLYISDTNNHVIRRVDLRTLEVTTMQFNGLCAPDVCIPNNFLEHHHHHH | not failed |
| MTEAATFHLEMTRQIRAPRERVFDAFTDQAALAAWHCPRGMRVLEASADARVGGRYRLVMGSRDGSQHMVGGEYQKIDRANFLAYTWQWEGGELPEGTRTLIEVTLTDKDGGTLLHMRHSGFPDTATRDAHTSGWQSVFNRLSDYVDAEGSAGTVTVYGDGRSTYVRTVRMALAEKGIAYKLDPLTPRDPELLKHNPFGRIPAFTDGPLEFFETRAILSYIEEAFDGPSLISQAGPTARARCEQWISLINCHAYDAMVRRYVLQYVFPSGENGQPDRKTIDAALPDIAKQLDALEHAYGGRDFLAGNTLTMADLFFAPIVEYLGRFPESAAMLESRPNIRRAHAAMRARPSYAATQPNFG | failed |
| MQVNIILLAAGKGQRFQSSSPNKIGCATIKQLARINDKPLIVHSIDKLQPLLKNAYVHNFFVTLGANKNAIQTVLPQDISVIASQHWAEGMGHTLAESVHSIKATSSHVLVALADQALITTEHYQELLSASKEQPNKIIATLCEGQLMAPAIFPEKYFPLLVKIQGDKGAGKLLLQHAKKADAITCEDAKIDIDTFSDLERVRQHLEYALQDNQQSSL | failed |
| MSITYSAISFSGFSPKSVPFAIHSVTRRQFLNPNTFYRFGFSPSLQGSSIEFSLQLNSRVVLSKERRSLPLVVRNDRPQNEDLPKQYTRREKKPFPVPIVDLRRAARERVKNNKDKPKRPLPPPKNGMVVKSLVPLAYKVYNARIRLINNLHRLMKVVRVNACGWCNEIHVGPYGHPFKSCKGPNTSQRKGLHEWTNSVIEDVIVPLEAYHLFDRLGKRIRHDERFSIPRVPAVVELCIQGGVEIPEFPAKRRRKPIIRIGKSEFVDADETELPDPEPQPPPVPLLTELPVSEITPPSSEEETVSLAEETLQAWEEMRAGAKKLMRMYRVRVCGYCPEVHVGPTGHKAQNCGAFKHQQRNGQHGWQSAVLDDLIPPRYVWHVPDVNGPPMQRELRSFYGQAPAVVEICAQAGAVVPEHYRATMRLEVGIPSSVKEAEMVV | failed |
| MSTRRSAFLRGLWAATPFSLVIAPFGLLFGVVGTEAGLDIVEVMGFSIIVIAGAAQFAAVQMMADHAPTLIILATSLAVNLRMAMYSASLTPHLGPAPAGLRALIAYCLVDQTYTASMIEFDRAPQQSLGEKIAFFFGTVLPVCPLWYGSTYVGARLGTKIPPEFALDFAVPITFLAMIAPLLRTPAHIAAAGVSVALSLVLAFMPYNSGLLVAAVAAMVTGAQVEAWTERRRAA | failed |
| MSLEKQKGLAIITGASQGIGAVIAAGLATDGYRVVLIARSKQNLEKVHDEIMRSNKHVQEPIVLPLDITDCTKADTEIKDIHQKYGAVDILVNAAAMFMDGSLSEPVDNFRKIMEINVIAQYGILKTVTEIMKVQKNGYIFNVASRAAKYGFADGGIYGSTKFALLGLAESLYRELAPLGIRVTTLCPGWVNTDMAKKAGTPFKDEEMIQPDDLLNTIRCLLNLSENVCIKDIVFEMKKSIIEGHHHHHH | not failed |
| MSLSNRAGEILIVEDSPTQAEHLKHILEETGYQTEHVRNGREAVRFLSLTRPDLIISDVLMPEMDGYALCRWLKGQPDLRTIPVILLTILSDPRDVVRSLECGADDFITKPCKDVVLASHVKRLLSGVKRTEERYSRESITLAFGNEGHHHHHH | not failed |
| MSLESGFLEDAQANLTLRNFYFNRNFTNPTKAQGKAEEWTQSFILDAKSGFTQGTVGFGMDVLGLYSLKLDGGKGTGGTQLLPLDHDGRPADNFGRLGVAFKARLSQTEVKVGEWMPVLPILRSDDGRSLPQTFRGGQITSKEIAGLTLYGGQFRANSPRDDSSMSDMSMFGKAAFTSDRFNFQGAEYAFNDKRTQIALWNAQLKDIYSQQFINLIHSQPLGDWTLGANLGFFYGKEDGSARAGDMENRTWSGLFSAKYGGNTFYVGLQKLTGDSAWMRVNGTSGGTLANDSYNASYDNAKEKSWQVRHDYNFAALGVPGLTLMNRYISGSNVHTATVSDGKEWGRESEVAYTVQSGTLKNLNLKWRNSTMRRDFSNNEFDENRLIISYPLSLLEGHHHHHH | not failed |
| MPLPSSARALKKPRLDDEVRFLRSWIEKPLHMGAVMPSGKLLARTMAHYVDVNSDAPVVELGPGTGAITSALVERGVDQKRLVLVEYNPGFCALLRDRYPQAKVVQGDAYRLRDTLWNVLSAPASAVVSGLPLVTKPMLTRLRLIRDAFTALAPGAPFVQFTYAVVPPIPKSLPGVSTEASERIWMNLPPARVWVYRKD | failed |
| MVHAFLIHTLRAPNTEDTGLCRVLYSCVFGAEKSPDDPRPHGAERDRLLRKEQILAVARQVESMCRLQQQASGRPPMDLQPQSSDEQVPLHEAPRGAFRLAAENPFQEPRTVVWLGVLSLGFALVLDAHENLLLAEGTLRLLTRLLLDHLRLLAPSTSLLLRADRIEGILTRFLPHGQLLFLNDQFVQGLEKEFSAAWPR | failed |
| KREHFRDDYLYRFYQYGDTHSKIPSNLYKVLARKLDMISASENINDLRSPPANHLELLEPKENKIYSIRVNKQYCLIFKYENNEVNNLYLDPH | failed |
| MLIFLISSAIVLLADLLITYQIYREIKVRREVSGNQGGFASVIIPVRGLDVNAEENLKSLLSQDYSAYEVIYVVDDENDPIVPILRKYNVKVVVSNKNCDICSGKINAQLEGLKHARGDIIVFADSDTWFPKYWLKELVSPLSNYVATTVFSWAKPVRLTIGNIIRAGFWTLGFESQAVGGTFLWGGSMAFKREFFDERVIQELKTQWCDDCTLTRIAKERGKLGFVFNAMPLNFYDETQLITWSKRQLITVWRYSRRGVNGFIIVAIFMLAFLFLIPFNVFAITPFIFWVFKNILRSYKIGLSNSIIPSLASILAIFYSLFLIALTLREKNIIWRGKIYKV | failed |
